Experimental data: patent US10800847
One block for each substance: values may come before it.

Key:
[1] = biological target: HLA-A*3303 (A33) single antigen on beads (human); experiment: Luminex iBeads (#6), IVIg 1:8
[2] = biological target: HLA-A*3002 (A30) single antigen on beads (human); experiment: Luminex iBeads (#6), IVIg 1:8
[3] = biological target: HLA-A*3601 (A36) single antigen on beads (human); experiment: Luminex iBeads (#6), IVIg 1:8
[4] = biological target: HLA-A*4301 (A43) single antigen on beads (human); experiment: Luminex iBeads (#6), IVIg 1:8
[5] = biological target: HLA-A*2902 (A29) single antigen on beads (human); experiment: Luminex iBeads (#6), IVIg 1:8
[6] = biological target: HLA-A*6602 (A66) single antigen on beads (human); experiment: Luminex iBeads (#6), IVIg 1:8
[7] = biological target: HLA-A*3401 (A34) single antigen on beads (human); experiment: Luminex iBeads (#6), IVIg 1:8
[8] = biological target: HLA-A*6601 (A66) single antigen on beads (human); experiment: Luminex iBeads (#6), IVIg 1:8
[9] = biological target: HLA-A*3001 (A30) single antigen on beads (human); experiment: Luminex iBeads (#6), IVIg 1:8
[10] = biological target: HLA-A*3402 (A34) single antigen on beads (human); experiment: Luminex iBeads (#6), IVIg 1:8
[11] = biological target: HLA-A*3101 (A31) single antigen on beads (human); experiment: Luminex iBeads (#6), IVIg 1:8
[12] = biological target: HLA-A*3201 (A32) single antigen on beads (human); experiment: Luminex iBeads (#6), IVIg 1:8
[13] = biological target: HLA-B*1516 (B63) (human); experiment: Luminex iBeads (#6), IVIg diluted 1:8
[14] = biological target: HLA-A*8001 (A80) single antigen on Luminex beads (human); experiment: Luminex single antigen bead assay, iBeads vs regular beads, IVIg 1:8
[15] = biological target: HLA-A*6901 (A69) single antigen on Luminex beads (human); experiment: as above
[16] = biological target: HLA-A*6802 (A68) single antigen on Luminex beads (human); experiment: Luminex single antigen bead assay, iBeads (#6), IVIg 1:8
[17] = biological target: HLA-A*8001 (A80) single antigen on Luminex beads (human); experiment: as above
[18] = biological target: HLA-A*6901 (A69) single antigen on Luminex beads (human); experiment: as above
[19] = biological target: HLA-A*3303 (A33) single antigen on beads (human); experiment: Luminex, iBead vs regular bead, IVIg 1:8
[20] = biological target: HLA-A*3601 (A36) single antigen on beads (human); experiment: Luminex, iBead vs regular bead, IVIg 1:8
[21] = biological target: HLA-A*3301 (A33) single antigen on beads (human); experiment: Luminex, iBead vs regular bead, IVIg 1:8
[22] = biological target: HLA-A*2902 (A29) single antigen on beads (human); experiment: Luminex, iBead vs regular bead, IVIg 1:8
[23] = biological target: HLA-A*3401 (A34) single antigen on beads (human); experiment: Luminex, iBead vs regular bead, IVIg 1:8
[24] = biological target: HLA-A*6601 (A66) single antigen on beads (human); experiment: Luminex, iBead vs regular bead, IVIg 1:8
[25] = biological target: HLA-A*3001 (A30) single antigen on beads (human); experiment: Luminex, iBead vs regular bead, IVIg 1:8
[26] = biological target: HLA-A*6801 (A68) single antigen on beads (human); experiment: Luminex, iBead vs regular bead, IVIg 1:8
[27] = biological target: HLA-A*3402 (A34) single antigen on beads (human); experiment: Luminex, iBead vs regular bead, IVIg 1:8
[28] = biological target: HLA-A*3101 (A31) single antigen on beads (human); experiment: Luminex, iBead vs regular bead, IVIg 1:8
[29] = biological target: HLA-B*0702 (B7) (human); experiment: Luminex regular beads (#7), IVIg diluted 1:8
[30] = biological target: HLA-B*1401 (B64) (human); experiment: Luminex regular beads (#7), IVIg diluted 1:8
[31] = biological target: HLA-B*1510 (B71) (human); experiment: Luminex regular beads (#7), IVIg diluted 1:8
[32] = biological target: HLA-B*1513 (B77) (human); experiment: Luminex regular beads (#7), IVIg diluted 1:8
[33] = biological target: HLA-B*1511 (B75) (human); experiment: Luminex regular beads (#7), IVIg diluted 1:8
[34] = biological target: HLA-B*1502 (B75) (human); experiment: Luminex regular beads (#7), IVIg diluted 1:8
[35] = biological target: HLA-B*1801 (B18) (human); experiment: Luminex regular beads (#7), IVIg diluted 1:8
[36] = biological target: Serum albumin on negative control beads (HSA/BSA) (human or bovine); experiment: Luminex regular beads (#7), IVIg diluted 1:8
[37] = biological target: HLA-B*1402 (B65) (human); experiment: Luminex regular beads (#7), IVIg diluted 1:8
[38] = biological target: HLA-B*1516 (B63) (human); experiment: Luminex regular beads (#7), IVIg diluted 1:8
[39] = biological target: HLA-B*0801 (B8) (human); experiment: Luminex regular beads (#7), IVIg diluted 1:8
[40] = biological target: HLA-B*1503 (B72) (human); experiment: Luminex regular beads (#7), IVIg diluted 1:8
[41] = biological target: HLA-B*1302 (B13) (human); experiment: Luminex regular beads (#7), IVIg diluted 1:8
[42] = biological target: HLA-B*1301 (B13) (human); experiment: Luminex regular beads (#7), IVIg diluted 1:8
[43] = biological target: HLA-A*3301 (A33) single antigen on beads (human); experiment: Luminex iBeads (#6), IVIg 1:8
[44] = biological target: HLA-A*6801 (A68) single antigen on beads (human); experiment: Luminex iBeads (#6), IVIg 1:8
[45] = biological target: HLA-B*1512 (B76) (human); experiment: Luminex regular beads (#7), IVIg diluted 1:8

MFI [1]: 517 MFI | MFI [2]: 1410 MFI | MFI [3]: 1550 MFI | MFI [4]: 2720 MFI | MFI [5]: 2890 MFI | MFI [6]: 1860 MFI | MFI [7]: 3420 MFI | MFI [8]: 2330 MFI | MFI [9]: 1340 MFI | MFI [10]: 0 MFI | MFI [11]: 0 MFI | MFI [12]: 915 MFI | MFI [13]: 1210 MFI | Difference % (iBead MFI against regular bead MFI) [14]: -29% | Difference % (iBead MFI against regular bead MFI) [15]: 4% | MFI [16]: 1950 MFI | MFI [17]: 1190 MFI | MFI [18]: 2880 MFI | Difference % (iBead MFI vs regular bead MFI) [19]: 189% | Difference % (iBead MFI vs regular bead MFI) [20]: 120% | Difference % (iBead MFI vs regular bead MFI) [21]: 42% | Difference % (iBead MFI vs regular bead MFI) [22]: 253% | Difference % (iBead MFI vs regular bead MFI) [23]: 59% | Difference % (iBead MFI vs regular bead MFI) [24]: 166% | Difference % (iBead MFI vs regular bead MFI) [25]: 9% | Difference % (iBead MFI vs regular bead MFI) [26]: 0% | Difference % (iBead MFI vs regular bead MFI) [27]: 0% | Difference % (iBead MFI vs regular bead MFI) [28]: 0% | MFI [29]: 837 MFI | MFI [30]: 2280 MFI | MFI [31]: 1620 MFI | MFI [32]: 3210 MFI | MFI [33]: 3820 MFI | MFI [34]: 1540 MFI | MFI [35]: 567 MFI | MFI [36]: 10300 MFI | MFI [37]: 1440 MFI | MFI [38]: 3130 MFI | MFI [39]: 1760 MFI | MFI [40]: 2300 MFI | MFI [41]: 2530 MFI | MFI [42]: 3520 MFI
Substance: IVIg Gamunex-C Lot NKLK1 (antibody)

MFI [1]: 152 MFI | MFI [2]: 369 MFI | MFI [3]: 572 MFI | MFI [43]: 1360 MFI | MFI [4]: 1690 MFI | MFI [5]: 2270 MFI | MFI [6]: 684 MFI | MFI [7]: 2060 MFI | MFI [8]: 1020 MFI | MFI [9]: 510 MFI | MFI [44]: 0 MFI | MFI [10]: 0 MFI | MFI [11]: 0 MFI | MFI [12]: 518 MFI | MFI [13]: 880 MFI | Difference % (iBead MFI against regular bead MFI) [14]: -63% | Difference % (iBead MFI against regular bead MFI) [15]: -53% | MFI [16]: 489 MFI | MFI [17]: 845 MFI | MFI [18]: 814 MFI | Difference % (iBead MFI vs regular bead MFI) [20]: -26% | Difference % (iBead MFI vs regular bead MFI) [21]: -9% | Difference % (iBead MFI vs regular bead MFI) [22]: 44% | Difference % (iBead MFI vs regular bead MFI) [24]: -40% | Difference % (iBead MFI vs regular bead MFI) [25]: -45% | Difference % (iBead MFI vs regular bead MFI) [26]: 0% | Difference % (iBead MFI vs regular bead MFI) [27]: 0% | Difference % (iBead MFI vs regular bead MFI) [28]: -100% | MFI [29]: 714 MFI | MFI [30]: 2400 MFI | MFI [31]: 1290 MFI | MFI [32]: 2260 MFI | MFI [33]: 3640 MFI | MFI [34]: 861 MFI | MFI [35]: 246 MFI | MFI [36]: 2340 MFI | MFI [37]: 1460 MFI | MFI [38]: 3130 MFI | MFI [39]: 2120 MFI | MFI [45]: 1130 MFI | MFI [40]: 1060 MFI | MFI [41]: 1940 MFI | MFI [42]: 3680 MFI
Substance: IVIg Octagam (Octapharma, Lachen, Switzerland) (antibody)
